Kd and fold decrease in binding affinity vs WT (fold lower affinity than WT MBNL1-N) data for three sequences are collected here from paper PMC3880588.

Test in all cases: EMSA
The subject of data set [1] is T1, MBNL-N-M12 F36A;Y68A, Q9NR56-5.
T1 sequence: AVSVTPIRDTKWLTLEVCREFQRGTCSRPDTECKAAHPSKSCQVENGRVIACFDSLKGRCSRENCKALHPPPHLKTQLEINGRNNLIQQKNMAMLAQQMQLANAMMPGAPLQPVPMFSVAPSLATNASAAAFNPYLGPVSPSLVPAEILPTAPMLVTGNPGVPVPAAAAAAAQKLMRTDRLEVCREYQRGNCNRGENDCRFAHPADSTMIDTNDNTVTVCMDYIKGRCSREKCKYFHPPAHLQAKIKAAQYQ
The conditions noted are these: no stable complex up to 2 uM; EMSA: 10 mM HEPES pH 7.9, 3 mM MgCl2, 10 uM ZnCl2, 5% glycerol, 1 mM DTT, 20 ug/ml rRNA, 10 fmol RNA in 5 ul, 30 C 15 min, then heparin 5 min; 5% PAGE at 4 C ….

Data set [2] has as its system T2, MBNL-N-M34 F202A;Y236A, Q9NR56-5.
T2 sequence: T1 sequence with A35F, A67Y, F201A, Y235A
To be noted: EMSA: 10 mM HEPES pH 7.9, 3 mM MgCl2, 10 uM ZnCl2, 5% glycerol, 1 mM DTT, 20 ug/ml rRNA, 10 fmol RNA in 5 ul, 30 C 15 min, then heparin 5 min; 5% PAGE at 4 C ….

A further data set concerns T3, MBNL1-2-72, Q9NR56-5.
T3 sequence: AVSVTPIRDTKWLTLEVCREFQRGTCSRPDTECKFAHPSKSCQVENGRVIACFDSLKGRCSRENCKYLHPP
To be noted: no binding at any concentration (up to 2000 nM); EMSA: 10 mM HEPES pH 7.9, 3 mM MgCl2, 10 uM ZnCl2, 5% glycerol, 1 mM DTT, 20 ug/ml rRNA, 10 fmol RNA in 5 ul, 30 C 15 min, then heparin 5 min; 5% PAGE at 4 C ….

Where a chain is given by its changes, count along the chain named.

On to “GGGAGACAAGCUUAAGUCUACGCACCCUCAACCCGCACCUUGCGGGAUCACGCUGCCUGCUGCACCCCACCCCCUUCCCCCUUCCUUCCCCCCACCCCCGUACUCCACUGCCAACUCCCAG [Tpm1 URE RNA]”, for which the Kd was greater than 2000 nM in data set [1] and greater than 2000 nM in the data set with MBNL1-2-72, Q9NR56-5. In data set [2], this sequence came in with a fold decrease in binding affinity vs WT (fold lower affinity than WT MBNL1-N) of 20.
As for “GGGAGACAAGCUUGAGCUGGAUGCCGCCUCUGCUGCUGC [Tpm1 Dugc RNA]”, the Kd is greater than 2000 nM in data set [1] and greater than 2000 nM with MBNL1-2-72, Q9NR56-5. The sequence also had a fold decrease in binding affinity vs WT (fold lower affinity than WT MBNL1-N) in data set [2] of 20.
As for “GGGAGACAAGCUUUGCAAACUGUUAAUCUCAACUAACUGCCGCUUAAAUAAUUAGUGCAGCUUUUAACUACUGGUUCUGUCCCAACUGGCUACUUGUGCCUAAAGCCCAAAGAAUU [Vldlr RNA]”, the Kd was greater than 2000 nM in data set [1] and greater than 2000 nM with MBNL1-2-72, Q9NR56-5. In data set [2], this sequence returned a fold decrease in binding affinity vs WT (fold lower affinity than WT MBNL1-N) of 20.
